Key:
[1] = target: Dec (phage decoration protein), tagged form not told for the experiment; assay: cryo-EM structure
[2] = target: Dec (phage decoration protein) with a hexa-histidine tag at the C-terminus; assay: cryo-EM structure

Sequence of Dec (phage decoration protein) with a hexa-histidine tag at the C-terminus (Q8HAE6 whole entry): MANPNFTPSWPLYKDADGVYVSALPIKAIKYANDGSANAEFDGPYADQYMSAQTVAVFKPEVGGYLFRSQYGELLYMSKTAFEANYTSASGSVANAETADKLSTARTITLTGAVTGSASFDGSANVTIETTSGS
Sequence of Dec (phage decoration protein), tagged form not told for the experiment (Q8HAE6 whole entry): as above

Substance	stoichiometry N [1]	stoichiometry N [2]
Dec (phage decoration protein), tagged form not told for the experiment (natural protein)	3	–
Dec (phage decoration protein) with a hexa-histidine tag at the C-terminus (natural protein)	–	3

Reference: PMC3358469
